Experimental data from article PMC11019746 (ACS Pharmacology & Translational Science, 2024).
Where two headings read alike, the source gives them in different places. Where no end group is shown, it is not given here.

T1: hY2R (Homo sapiens, UniProt P49146)
T1 construct: host or cells: CHO
T1 sequence (P49146 1-381): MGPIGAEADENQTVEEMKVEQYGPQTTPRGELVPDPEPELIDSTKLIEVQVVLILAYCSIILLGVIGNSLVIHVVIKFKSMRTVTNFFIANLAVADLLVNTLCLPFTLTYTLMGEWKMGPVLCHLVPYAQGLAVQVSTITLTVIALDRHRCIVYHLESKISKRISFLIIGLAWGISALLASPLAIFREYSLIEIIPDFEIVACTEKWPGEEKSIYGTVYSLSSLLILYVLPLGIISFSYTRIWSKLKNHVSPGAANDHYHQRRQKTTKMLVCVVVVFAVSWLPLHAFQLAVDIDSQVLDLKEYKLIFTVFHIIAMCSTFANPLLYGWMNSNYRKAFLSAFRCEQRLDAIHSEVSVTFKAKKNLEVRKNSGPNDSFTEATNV

T2: hY1R (Homo sapiens, UniProt P25929)
T2 construct: host or cells: SK-N-MC neuroblastoma cells
T2 sequence (P25929 1-384): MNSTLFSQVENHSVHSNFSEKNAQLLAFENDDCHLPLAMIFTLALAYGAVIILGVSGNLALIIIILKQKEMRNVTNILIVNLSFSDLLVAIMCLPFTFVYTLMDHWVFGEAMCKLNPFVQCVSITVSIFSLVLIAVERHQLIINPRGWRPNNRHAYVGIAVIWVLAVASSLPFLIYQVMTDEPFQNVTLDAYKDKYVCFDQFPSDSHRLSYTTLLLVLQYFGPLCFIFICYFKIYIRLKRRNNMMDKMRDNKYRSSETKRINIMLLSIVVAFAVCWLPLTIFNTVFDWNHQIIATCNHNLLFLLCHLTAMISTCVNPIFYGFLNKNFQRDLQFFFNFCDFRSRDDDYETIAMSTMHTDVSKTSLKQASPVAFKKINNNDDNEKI

T3: hY5R (Homo sapiens, UniProt Q15761)
T3 construct: expressed in transfected cells; host or cells: HEC-1B (human endometrial cancer)
T3 sequence (Q15761 1-445): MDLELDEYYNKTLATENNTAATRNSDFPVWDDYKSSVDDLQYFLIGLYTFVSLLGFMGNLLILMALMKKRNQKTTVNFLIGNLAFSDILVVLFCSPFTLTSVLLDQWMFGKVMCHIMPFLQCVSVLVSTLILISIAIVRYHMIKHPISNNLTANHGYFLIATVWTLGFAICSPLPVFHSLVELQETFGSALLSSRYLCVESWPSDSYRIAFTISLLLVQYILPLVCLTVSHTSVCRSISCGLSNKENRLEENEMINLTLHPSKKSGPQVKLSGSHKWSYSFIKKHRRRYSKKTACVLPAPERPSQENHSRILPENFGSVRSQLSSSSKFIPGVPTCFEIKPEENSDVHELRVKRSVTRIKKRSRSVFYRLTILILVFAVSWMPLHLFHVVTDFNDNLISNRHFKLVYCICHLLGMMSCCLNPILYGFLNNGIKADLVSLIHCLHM

T4: human neuropeptide Y Y2 receptor (human, UniProt P49146 1-381)
T4 construct: also called hY2R; source: CHO-hY2R cells (from PerkinElmer), intact cells
T4 sequence (looked up): T1 sequence (P49146 1-381)

B1: fluorescent ligand 16 (Cy3B-labeled cyclic hexapeptide) (peptide)
peptide: RYRLRY-NH2
modifications: not fully specified (bridges); also: Cy3B conjugated to the amine of the cyclic precursor peptide 6, N^ω-carbamoylated arginine in the ring, position not given here
notes: structure drawn in Scheme 2; source: synthetic peptide: from precursor peptide 6 and Cy3B succinimidyl ester (12), preparative HPLC
B2: fluorescent ligand 19 (Py-5-labeled cyclic hexapeptide) (peptide)
peptide: RYRLRY
modifications: not fully specified; as 11; the alkyne of the carbamoylated arginine in position 1 joined by click chemistry (triazole) to the azido-functionalized pyridinium-type cyanine dye 15 (from Py-5); C-terminal amide
notes: peptide chain as in 11, whose linear precursor 10 is printed in three-letter code at h-0020; 19 is made from 11 and dye 15; source: synthetic peptide: from 11 and the azido-functionalized dye 15 by copper(I)-catalyzed click reaction, preparative HPLC
B3: fluorescent ligand 18 (Py-1-labeled cyclic hexapeptide) (peptide)
peptide: RYRLRY-NH2
modifications: also: Py-1 cyanine dye on the amine of a carbamoylated Arg in the ring, position not given here, cyclic, ring closure not given here
notes: peptide part as in m6; structure drawn in Scheme 2; source: synthetic peptide: from precursor peptide 6 and the pyrylium dye Py-1 (14), preparative HPLC
B4: fluorescent ligand 17 (Sulfo-Cy5-labeled cyclic hexapeptide) (peptide)
peptide: RYRLRY-NH2
modifications: also: Sulfo-Cy5 (S0223) conjugated to the amine of the cyclic precursor peptide 6, N^ω-carbamoylated arginine in the ring, position not given here
notes: peptide part as in m6; structure drawn in Scheme 2; source: synthetic peptide: from precursor peptide 6 and the succinimidyl ester 13 (S0586) of Sulfo-Cy5 (S0223), preparative HPLC

Tests used:
hY2R = biological target: T1, hY2R; assay: Y2R radioligand competition binding, whole CHO-hY2R cells, [3H]propionyl-pNPY; settings: read-out: pKi ± SEM hY2R (converted)
Protocol: (§1) All radioligand binding assays were performed at intact Y receptor expressing cells at 23 ± 2 °C.

hY1R = biological target: T2, hY1R; assay: Y1R radioligand competition binding, whole SK-N-MC cells, [3H]UR-MK299; settings: SK-N-MC neuroblastoma cells, [3H]UR-MK299 c = […]; read-out: pKi ± SEM hY1R (converted)
Protocol: as §1
Competition binding assays at Y1R-expressing SK-N-MC neuroblastoma cells were performed as previously described using [^3H]UR-MK299 as radioligand (concentration: 0.15 nM).[33] […] (logarithmic form in the case of pKi values).

hY5R = biological target: T3, hY5R; assay: Y5R radioligand competition binding, whole HEC-1B-hY5R cells, [3H]propionyl-pNPY; settings: [3H]propionyl-pNPY c = 5 nM
Protocol: as §1
(logarithmic form in the case of pKi values).

hY4R [1] = biological target: T5, hY4R (Homo sapiens, UniProt P50391); assay: Y4R Ca2+ aequorin assay (CHO-hY4R-Gqi5-mtAEQ cells); format: cell-based; design: expressed in transfected cells; host or cells: CHO (co-expressing Gqi5 and mitochondrially targeted aequorin); settings: for EC50: CHO-hY4R-Gqi5-mtAEQ cells, agonist mode, read-out: Ca2+-aequorin pEC50 ± SEM (converted); for Emax: read-out: Ca2+-aequorin Emax ± SEM
Protocol: The assay was performed with live CHO-hY4R-Gqi5-mtAEQ cells as previously described (used buffer: buffer III). Measurements were carried out on a Tecan Infinite Lumi plate reader. Data analysis was performed as reported using GraphPad Prism 5 for the calculation of the area under the curve. […] Efficacies Emax correspond to the upper plateaus of the normalized concentration–response curves.

Y4R = Y4R (Homo sapiens, UniProt P50391); assay: Y4R miniGsi recruitment assay (HEK293T-NlucN-mGsi/Y4R-NlucC cells); format: cell-based; design: expressed in transfected cells; host or cells: HEK293T; settings: read-out: miniGsi recruitment Emax ± SEM; further: relative to 1 µM hPP (100%)
Protocol: Furimazine was used as nanoluciferase substrate. The original stock was diluted 1:1000 in L15-HEPES to obtain the feed solution for the assay. Data analysis was performed based on the areas under the curves (time window: 45 min starting with the agonist addition) using GraphPad Prism 5. […] Efficacies Emax correspond to the upper plateaus of the normalized concentration–response curves.

hY4R [2] = biological target: T5, hY4R; design: expressed in transfected cells; host or cells: CHO (co-expressing Gqi5 and mitochondrially targeted aequorin); settings: cited from earlier work
[3] = Chemical stability in PBS pH 7.4; format: physicochemical
Protocol: The chemical stability of the fluorescent ligands 16, 17, and 18 was investigated in PBS (adjusted to pH 7.4) at 22 °C. […] After time periods of 0, 6, and 48 h, an aliquot (25 μL) was withdrawn and added to 25 μL of acetonitrile/0.04% aq. TFA 1:9 v/v to obtain a peptide solution with a concentration of 50 μM. 20 μL of this solution were subjected to analytical RP-HPLC analysis using the same system and conditions as described under Analytical HPLC, but applying a different linear gradient: 0–14 min: A/B 90:10–45:55, 14–15 min: 45:55–5:95, 15–19 min: 5:95 (isocratic). A 1:1 mixture of PBS and acetonitrile/0.04% aq. TFA 1:9 v/v (20 μL) was analyzed to obtain the blank chromatogram.

[4] = biological target: human neuropeptide Y Y5 receptor (human) (UniProt Q15761); assay: radioligand binding; competition with [^3H]propionyl-pNPY (5 nM) at intact HEC-1B-hY5R cells, 23 ± 2 °C, buffer II (150 mM NaCl)
[5] = biological target: human neuropeptide Y Y1 receptor (human) (UniProt P25929); assay: radioligand binding; competition with [^3H]UR-MK299 ([…]) at intact SK-N-MC cells, 23 ± 2 °C, buffer II (150 mM NaCl)
[6] = biological target: T4, human neuropeptide Y Y2 receptor; assay: radioligand binding; competition with [^3H]propionyl-pNPY (0.5 nM) at intact CHO-hY2R cells, 23 ± 2 °C, buffer I (sodium-free); settings: one partner purified
[7] = biological target: T6, human neuropeptide Y Y4 receptor (wild-type, CHO-hY4R-Gqi5-mtAEQ cells) (human, UniProt P50391 1-375); assay: flow cytometry on cells; association (0.7 nM 16, 1 nM 17, 0.5 nM 18) and dissociation (started with excess hPP and 5) at CHO-hY4R-Gqi5-mtAEQ cells, DPBS (137 mM Na^+), 22 ± 2 °C; monophasic and biphasic fits; Kd(kin) = koff/kon; settings: one partner purified
T6 construct: The cells also express Gqi5 and mitochondrially targeted aequorin; also called wild-type Y4R

[8] = biological target: T6, human neuropeptide Y Y4 receptor …; assay: cell-based or functional assay

Row | Molecule | Kd (hY4R [2]) | pKi [4] | pKi [5] | pKi [6] | kobs(bi,fast) [7] | kobs(bi,slow) [7] | kobs(mono) [7] | also measured
1 | C#CCCCCNC(=O)N=C(N)NCCC[C@@H]1NC(=O)CCC(=O)NCCCCNC(=O)N=C(N)NCCC[C@@H](C(=O)N[C@@H](CC(C)C)C(=O)N[C@@H](CCCNC(=N)N)C(=O)N[C@@H](Cc2ccc(O)cc2)C(N)=O)NC(=O)[C@H](Cc2ccc(O)cc2)NC1=O [Compound 11, (9S,12S,15S,E)-4-Amino-N-{(S)-1-[((S)-1-{[(S)-1-amino-3-(4-hydroxyphenyl)-1-oxopropan-2-yl]amino}-5-guanidino-1-oxopentan-2-yl)amino]-4-methyl-1-oxopentan-2-yl}-15-{3-[(E)-2-(hex-5-yn-1-ylcarbamoyl)guanidino]propyl}-12-(4-hydroxybenzyl)-2,11,14,17,20-pentaoxo-1,3,5,10,13,16,21-heptaazacyclopentacos-3-ene-9-carboxamide Tris(hydrotrifluoroacetate)] | – | – | – | – | – | – | – | Ki (hY2R): > 10000 nM; Ki (hY1R): > 10000 nM; Ki (hY5R; read-out: Ki hY5R (converted)): > 3000 nM; Ki (hY5R; read-out: pKi ± SEM hY5R (converted)): > 3160 nM; EC50 (hY4R [1]): 97.7 nM; Emax (hY4R [1]): 56 ± 3%; Emax (Y4R): 62 ± 1%
2 | Sulfo-Cy5-[K^4]hPP: Sulfo-Cy5-labeled [K^4]hPP, reported fluorescent Y4R ligand (APLKPVYPGDNATPEQMAQYAADLRRYINMLTRPRY; not fully specified) | 5.6 nM | – | – | – | – | – | – | –
3 | 1: Sulfo-Cy5-labeled [K^4,Nle^17,30]hPP, reported Y4R fluorescent ligand [Compound 1] | 11 nM | – | – | – | – | – | – | –
4 | 2: 5-TAMRA-labeled [K^18,Nle^17,30]hPP, reported Y4R fluorescent ligand [Compound 2] | 26 nM | – | – | – | – | – | – | –
5 | Cc1cc(/C=C/c2cc3c4c(c2)CCCN4CCC3)cc(C)[n+]1CCCC(=O)N[C@@H]1CC(=O)N[C@@H](CCCNC(=N)N)C(=O)N[C@@H](Cc2ccc(O)cc2)C(=O)N[C@H](C(=O)N[C@@H](CC(C)C)C(=O)N[C@@H](CCCNC(=N)N)C(=O)N[C@@H](Cc2ccc(O)cc2)C(N)=O)CCCNC(N)=NC(=O)NCCCCNC1=O [Compound 18] | – | – | – | – | – | – | – | Ki (hY2R): > 1000 nM; Ki (hY1R): > 1000 nM; Ki (hY5R; read-out: Ki hY5R (converted)): 840 nM; EC50 (hY4R [1]): 50.1 nM; Emax (hY4R [1]): 61 ± 5%; Emax (Y4R): 44 ± 2%; time with marginal degradation ([3]; PBS pH 7.4 (10% DMSO), room temperature): ≥ 6 h; chemical stability ([3]; PBS pH 7.4, room temperature, 48 h, 100 μM): slow decomposition
6 | B1 | – | 6.32 | 6.91 | < 6 | 1 min⁻¹ | 0.048 min⁻¹ | 0.18 min⁻¹ | –
7 | B2 | – | < 6 | < 6 | < 6 | – | – | – | EC50, Ca^2+-aequorin assay (CHO-hY4R-Gqi5-mtAEQ cells) [8]: 58 nM
8 | B3 | – | 6.08 | < 6 | < 6 | 0.7 min⁻¹ | 0.034 min⁻¹ | 0.1 min⁻¹ | –
9 | B4 | – | < 6 | < 6 | < 6 | 1.89 min⁻¹ | 0.071 min⁻¹ | 0.15 min⁻¹ | –
